# In the nanobody polyreactivity screen of Harvey et al. (2022):
# Test: yeast display, Sf9 membrane polyspecificity reagent, FACS + sequencing; frameworks hold sequencing errors
# Outline: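 Nanobodies from a synthetic yeast display library (Saccharomyces cerevisiae BJ5465), induced 36–48 hours with galactose, were stained 1 hour at 4 °C with 10% biotinylated, detergent-solubilized Sf9 membrane reagent, enriched on streptavidin microbeads, then FACS-sorted. Anti-HA (expression) and streptavidin (reagent binding) fluorescence set low and high (top ~1%) gates. Polyreactivity labels come from the gate of origin. Genes were colony-PCR amplified, MiSeq 2 × 250 sequenced and filtered by CDR length.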
row,Sequence,polyreactivity (PSR sort gate)
1,QVQLVESGGGLVQAGGSLRLCCAASGIIFQRNDMGWYRQAPGKERELVANIRDGGITYADSVKGRFTISRDNAKNTVYLQMNSLKPEDTAVYYCARDDTSPGYGDQSSIAAYYYWGQGTQVTVSS,low polyreactivity
2,QVQLVESGGGLVQAGGSLRLICAASGFIFGDYTMGWYRPAPGKEREVVAAITWYGDSTYYADSVKGRFTISRDNAKNTVYLQMNTLKTEDTAVYYCNAVNDWYYAYYGVTSFRSYDYWGQGSQVTVSS,low polyreactivity
3,QVQLVESGGGLVQAGGSLRLICAASGFIFGGYGMGWYRQAPGKERELVAVITASGGSTYYADSVKGRFTISRDNAKNTVYLQMNSLKPEDTAVYYCAARVGRYGYSQYYYWGQGTQVTVSS,high polyreactivity
4,QVQLVESGGGLVQAGGSLRLICAASGFIFRRYDMGWYRQAPGKERELVATITASVGSTNYADSVKGRFTISRDNAKNTVYLQMNSLKPEDTAVYYCATDIIGAIRVWDHTRMDYWGQGTQVTVSS,low polyreactivity
5,QVQLVESGGGLVQAGGSLRLICAASGFIFSSHAMGWYRQAPGKERELVAAISRSGGRTYYADSVKGRFTITRDNAKNTVYLQMNSLKPEDTAVYYCAAKRWWQYYWGQGTQVTVSS,high polyreactivity
6,QVQLVESGGGLVQAGGSLRLICAASGFIFTGYVMGWYRQEPGKERELVAAISSRGGSTYYADSVKGRFTISRDNAKNTVYLQMNSLKPEDTAVYYCAARYVYGSSYDYWGQGTQVTVSS,high polyreactivity
7,QVQLVESGGGLVQAGGSLRLICAASGFIFTYYGMGWYRQAPGKERELVAAITWSGASTYYADSVKGRFTISRDNAKNTVYLQMNSLKPEDTAVYYCNAGWDSGIVQSDETVYKYDYWGQGTQVTVSS,low polyreactivity
8,QVQLVESGGGLVQAGGSLRLICAASGFIYFFYAMGWSRQAPGKEMEFVAVITQSGGSTYYADSVKGRFTISRDNAKNTVYLQMNSLKPEDTAVYYFNADTVRYYPFFSVRYYYWGQGTQVTVSS,low polyreactivity
9,QVQLVESGGGLVQAGGSLRLICAASGFIYHNAMGWYRQATGTERELVARITWSGGSTSYADSVKGRFTISRDNAKNTVYLQKNSLKPEDTAVYYCAARGVVYRYGASRGYWGQGTQVTVSS,high polyreactivity
10,QVQLVESGGGLVQAGGSLRLICAASGFNFVTNAMGWYRQAPGKERELVAAISRRGGSTYYADSVKGRFTISRDIAKNTVYLQMNSLKPEDTAVLYCAAVTLSAESGYYWGHGTQVTVSS,high polyreactivity
11,QVQLVESGGGLVQAGGSLRLICAASGFSLYRNSMGWYRQAPGTERELVAAISSSGGRTYYADSVKGRFTISRDNAKNTVYLQMNSLKPEDTAVYYCAADFYRYGPQLGYWGQGTQVTVSS,high polyreactivity
12,QVQLVESGGGLVQAGGSLRLICAASGFTFFSYTMGWYRQAPGKERELVAAISKRGSRTYYADSVKGRFTISRDNAKNTVYLQMNSLKQEDTAVYYCAADSGPEVVHRREDYWGQGTQVTLSS,high polyreactivity
13,QVQLVESGGGLVQAGGSLRLICAASGFTFRTYAMGWYRQAPGKERELVAAINYSGGSTYYADSVKGRFTISRDNAKNTVYLQMNSVKPEDTAVYYCNKQRDVQVYVRYPMNYWGQGTQVTVSS,low polyreactivity
14,QVQLVESGGGLVQAGGSLRLICAASGFTFTDYAMGWYRQAPGKERELVAVIDSGGSTYYADSVKGRFTISRDNAKNTVYLQMNSLKPEDTAVYYCAAYNGTAPSEDYLGQGTQVTVSS,low polyreactivity
15,QVQLVESGGGLVQAGGSLRLICAASGFTLDQYAMGWYRPAPGKERELVAVITSGGNTYYADSVKGRFTISRDNAKNTVYLQMNSLKPEDTAVYYCAKDVSDPFYDPFEYWGQGTQVTVSS,low polyreactivity
16,QVQLVESGGGLVQAGGSLRLICAASGFTLDWYVMGWYRQAPGKERELVAAISSSGGRTYYADSVKGRFTISRDNEKNTVYLQMNSLKPEDPAVYYCAARNKYGGYPYGYDYWGQGTQVTVSS,high polyreactivity
17,QVQLVESGGGLVQAGGSLRLICAASGFTLRHYAMGWSRQAPGKERELVAAITKSGSSTYYADSVKGRFTISRDNAKNTVYLQMNSLKPEDTAVYYCAKKTSYSYAFRYDYWGQGTQVTVSS,high polyreactivity
18,QVQLVESGGGLVQAGGSLRLICAASGGIFPTYDMVWYRQAPGKERELVAAIDRNGTSTTYSDSVKGRFTISRDNAKNTVYLQMNSLKPEDTEVYYCAAGYNDQTSAYDYWGHGTQVTVSS,low polyreactivity
19,QVQLVESGGGLVQAGGSLRLICAASGGIFWYYAMGWYRQAPGKERELVATISSGGSTKYADSVKGRFTISRDNAKNTVYLQMNSLKPEDTAVYYCNKVFPNLYIYVVRGLIEMDYWGQGTQVTVSS,low polyreactivity
20,QVQLVESGGGLVQAGGSLRLICAASGGIIYWNAMGWYRQAPGKERELVATITRSGGSTYYADSVKGRFTISRDNAKNTVYLQMNSLKPEDTAVYYCAARSYYRFDYWGQGTQVTVSS,high polyreactivity
21,QVQLVESGGGLVQAGGSLRLICAASGGPFGYYTMGWYRQAPGKERELVAAISSGGGTDYADSVKGRFTISRDNAKNTVYLQMNSLKPEDTAVYYCNAKWLEWHYVFLPSYTMDYWGQGTQVTVSS,low polyreactivity
22,QVQLVESGGGLVQAGGSLRLICAASGGTFGRNAMGWYRQAPGKERELVATITRRGGSTYYADSVKGRFTISRDNAKNTVYLQMNSLKPEDTAVYYCNALVTTTPRYDYWGQGTQVTVSS,high polyreactivity

row,Sequence,polyreactivity (PSR sort gate)
1,QVQLVESGGGLVQAGGSLRLICAASGGTFNAYAMGWYRQAPGKERELVATISYSGGSTYYADSEKGRFTISRDNAKNTVYLQMNSLKPEDTAVYYCATDVYDSTPFRFDYWGQGTQVTVSS,low polyreactivity
2,QVQLVESGGGLVQAGGSLRLICAASGIIFHFNDMGWYRQAPGKERELVAAIDSTGSTNYADSVKGRFTISRDNAKNTVYLQMNSLKPEDTAVYYCAVLNHRVDSVLTRYYYWGQGTQVTVSS,low polyreactivity
3,QVQLVESGGGLVQAGGSLRLICAASGIIFRWYTMGWYRQAPGKERELVAAISTSTGSTYYADSVKGRFTISRDNAKNTVYLQMNSLKPEDTAVYYCAADYAYWNYESYYWGQGTQVTVSS,high polyreactivity
4,QVQLVESGGGLVQAGGSLRLICAASGITFARNTRGWYRQAPGKERELVAAIDSGGNTYADSVKGRFTISRDNAKNTVYLQMNSLKPEDTAVYYCAVDGGEFSSYGYWGQGTQVTVSS,low polyreactivity
5,QVQLVESGGGLVQAGGSLRLICAASGITFGCNAMGWYRQAPGKEREFVAAITFSDGSTRYADSVKGRFTISRDNAKNTVYLQMNSLKPEDTAVYYCAADTWSDKYDYWGQGTQVTVSS,low polyreactivity
6,QVQLVESGGGLVQAGGSLRLICAASGITFWYYAMGWSRQEPGKERELVAAITRRGRTNYADSVKGRFTISRDNAKNTVYLQMNSLKPEVTAVYYCAVDLYSFSPRYYYWGQGTQVSVSS,low polyreactivity
7,QVQLVESGGGLVQAGGSLRLICAASGITFYYYAMGWYRQAPGKERELVAAISTRSGSTYYADSVKGRFTISRDNAKNTVYLEMNSLKPEDTAVYYCAARYRSAGHRYDYWGQGTQVTVSS,high polyreactivity
8,QVQLVESGGGLVQAGGSLRLICAASGITIKRSAMGWYRQPPGKEREFVATISQSGTSTYYADSVKGLFTISRDNAKNTVYLQMNSLKPEDTAVYYCAADYIGYWYGYYSWGHGTQVTVSS,low polyreactivity
9,QVQLVESGGGLVQAGGSLRLICAASGITLYRYAMGWYRQAPGKERELVADISSGGGTTYYADSVKGRFTISRDNAKNTVYLQMNSLKPEDTAVYYCAADYGFRYPLYDYWGQGTQVTVSS,low polyreactivity
10,QVQLVESGGGLVQAGGSLRLICAASGLIFVRNVMGWYRQAPGKERELVAAINLSTGSTYYADSVKGRFTISRDNAKNTVYLQMNCLKPEDTAVYYCAAEYLYWDDLQDYEYWGQGTQVTVSS,low polyreactivity
11,QVQLVESGGGLVQAGGSLRLICAASGLIFVSYAMGWSRQAPGKERELVAAITYGGDSTFYADSVKGRFTISRDNAKNTVYLQMNSLKPEDTAVYYCNADIWFIWHSFGWGYDYWGQGTQVTVSS,low polyreactivity
12,QVQLVESGGGLVQAGGSLRLICAASGLTFDVNAMGWYRQAPGKERELVAAITADDGSTYYADSVKGRFTISRDNAKNTVYLQMNSLKPEDTAVYYCNADTRTQGPYSAPYYREMNYWGQGTQVTVSS,low polyreactivity
13,QVQLVESGGGLVQAGGSLRLICAASGLTFDYYDMGWYRQAPGKERELVASITWRGSSTYYADSVKGRFTISRDNAKNTVYLQMISLKPEDTAVYYCAARYRWSEWRPYYYWGQGTQVTVSS,high polyreactivity
14,QVQLVESGGGLVQAGGSLRLICAASGLTFYRYAMGWYRQGPGKERELVAGITRRGGSTYYADSVKGRFTISRDKPKNTVYLPMNSLKPEDTAVYYCNVDGISSSYPEMDYWGQGTQVTVSS,low polyreactivity
15,QVQLVESGGGLVQAGGSLRLICAASGNIFTTYAMGWYRQAPGKERELVAAISRTGGRTSYADSVKGRFTISRDNAKNTVYLQMNSLKPEDTAVYYCAAVPTVRPSAPRARILSDYWGQGTQVTVSS,high polyreactivity
16,QVQLVESGGGLVQAGGSLRLICAASGNIFVPSAMGWYRQAPGKERELVAAINGGGSTNYADSVKGRFTISRDNAKNTVYIQMISLKPEDTAVNYCAAVWYFLSLWYDYWGQGTQVTVSS,high polyreactivity
17,QVQLVESGGGLVQAGGSLRLICAASGNTFNFYAMGSYRQAPGKERELVAGISGSNTYYADSVKGRFTISRDNAKNTVYLQMNSLKPEDTAVYYCAKRAIWRYGYWGQGTQVTVSS,high polyreactivity
18,QVQLVESGGGLVQAGGSLRLICAASGNTFVDYAMGWYRQAPGKELELVAAISRSGGSTYADSVKGRFTISRDNAKNTVYLQMNSLKPEDTAVYYCAAYSGVGYLWFDYWGQGTQVTVSS,low polyreactivity
19,QVQLVESGGGLVQAGGSLRLICAASGRIFGDNGMGWYTQAPGKERELVTYADSVKGRFTISRDNAKNTVYLQMNSLKPEDTAVYYCNKVPPRFSGLDENYWGQGTQVTVSS,low polyreactivity
20,QVQLVESGGGLVQAGGSLRLICAASGRIFKLYAMGWYRQAPGKERELVASINSGGGSTNYADSVKGRFTISRDNAKNTVYLQMNSLKPEDPAVYYCAKCYRRVYGPFFYWGQGTQVTVSS,low polyreactivity
21,QVQLVESGGGLVQAGGSLRLICAASGRIFRYNAMGWYRQAPGKERELVAAISSVGSTNYADSVKGRFTISRDNAKNTVYLQMNSLKPEDTAVYYCNAVVRSYVKTYRYYKVDYWGQGTQVTVSS,high polyreactivity
